{
  "source": "paper PMC9167300",
  "about": "“The LCK-14-3-3ζ-TRPM8 axis regulates TRPM8 function/assembly and promotes pancreatic cancer malignancy” (Cell Death & Disease, 2022)",
  "molecular_target": "T1, His-LCK fusion (human, UniProt P06239 1-509)",
  "T1 construct": "human LCK cDNA subcloned into pET28a(+); also called His-fused LCK; source: E. coli BL21, purified (Ni-NTA agarose)",
  "T1 sequence (P06239 whole entry, the tested form may be a part)": "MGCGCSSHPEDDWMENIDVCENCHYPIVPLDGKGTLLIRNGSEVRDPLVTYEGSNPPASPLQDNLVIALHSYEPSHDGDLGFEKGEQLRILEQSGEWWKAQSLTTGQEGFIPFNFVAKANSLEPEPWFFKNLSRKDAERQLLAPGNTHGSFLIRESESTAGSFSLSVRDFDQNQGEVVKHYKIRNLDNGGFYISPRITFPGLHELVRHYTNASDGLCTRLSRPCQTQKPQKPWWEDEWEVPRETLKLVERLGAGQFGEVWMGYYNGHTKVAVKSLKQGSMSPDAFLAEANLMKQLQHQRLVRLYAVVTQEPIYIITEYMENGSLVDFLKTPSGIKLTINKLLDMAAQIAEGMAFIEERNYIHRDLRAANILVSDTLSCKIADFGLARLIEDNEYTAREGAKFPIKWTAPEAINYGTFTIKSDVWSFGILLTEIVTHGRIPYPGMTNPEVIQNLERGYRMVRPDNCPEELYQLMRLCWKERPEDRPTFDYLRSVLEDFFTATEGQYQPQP",
  "experiment": "pull-down; protein-protein interaction assay in vitro: 150 μg His-LCK eluted from Ni-NTA incubated with GST or GST-M8C bound to GST-agarose beads, 1 h at room temperature; Western blot",
  "conditions": "both partners purified",
  "data": [
    {"binder": "GST-tagged C-terminus of TRPM8 (GST-M8C) (domain or fragment, rat, UniProt Q8R455 980-1104, looked up, C-terminus of rat TRPM8 (M8C), amino acids 980-1104, in pGEX-4T-1; source: E. coli BL21, purified (glutathione beads)) GYTVGIVQENNDQVWKFQRYFLVQEYCNRLNIPFPFVVFAYFYMVVKKCFKCCCKEKNTESSACCFRNEDNETLAWEGVMKENYLVKINTKANDNAEEMRHRFRQLDTKLNDLKGLLKEIANKIK", "values": [
      {"measurement": "binding result", "result": "binds"}
    ]}
  ]
}
